Test results published in publication PMC7244744, “Vesicular transport mediates the uptake of cytoplasmic proteins into mitochondria in Drosophila melanogaster” (Nature Communications, 2020).

Biological target: the molecule itself
Assay: SDS-PAGE and western blot with and without DTT; flight-muscle tissue homogenates of wild-type flies, mitochondrial fraction; monomer band and upper band (Dosmit*); analysed in the presence and absence of DTT

B1: Dosmit (downsizing mitochondria), endogenous in fly flight muscle (natural protein, UniProt Q9VAM6 1-133, looked up)
chain: MEPISHLVKSSLPNYLSSLPVPDSIGGWFKLSFKDWLALIPPTVVVAGLGYTAYLAYCPAARASCAAKNSGRCNNHIRKNEPKVVDMIDVEDIAEKAAFCRCWKTKNWPYCDGSHGEHNKQTGDNVGPIVIKK
notes: endogenous protein of flight muscle; Seen as monomer and dimer (Dosmit*) bands on western blots; the dimer band is reduced to the monomer by DTT; also called Dosmit* (dimer form); CG1458; source: endogenous, flight-muscle tissue homogenate of wild-type flies (mitochondrial fraction)
stoichiometry N: 2
